The values that follow come from publication PMC9684555, “Structure- and computational-aided engineering of an oxidase to produce isoeugenol from a lignin-derived compound” (Nature Communications, 2022).

As a reminder, the Km is the concentration of substrate that gives half-maximal velocity. The term kcat denotes the number of substrate molecules converted per active site and unit of time at saturation.

Substrate in series [1]: CCCc1ccc(O)c(OC)c1
Description: purified protein. Type of series: biochemical, Rhodococcus jostii. As to conditions: 50 mM KPi pH 7.5, 10% v/v DMSO, 10 µM to 1 mM substrate, O2 co-substrate, 1.0 µM enzyme.

Substrate in series [2]: COc1cc(CO)ccc1O
The series is described as follows: purified protein. Type of series: biochemical, Rhodococcus jostii. As to conditions: 50 mM KPi pH 7.5, O2 co-substrate, 0.05 µM enzyme.

B1: EUGO (eugenol oxidase) (Rhodococcus jostii RHA1) (protein)
chain: MTRTLPPGVSDERFDAALQRFRDVVGDKWVLSTADELEAFRDPYPVGAAEANLPSAVVSPESTEQVQDIVRIANEYGIPLSPVSTGKNNGYGGAAPRLSGSVIVKTGERMNRILEVNEKYGYALLEPGVTYFDLYEYLQSHDSGLMLDCPDLGWGSVVGNTLDRGVGYTPYGDHFMWQTGLEVVLPQGEVMRTGMGALPGSDAWQLFPYGFGPFPDGMFTQSNLGIVTKMGIALMQRPPASQSFLITFDKEEDLEQIVDIMLPLRINMAPLQNVPVLRNIFMDAAAVSKRTEWFDGDGPMPAEAIERMKKDLDLGFWNFYGTLYGPPPLIEMYYGMIKEAFGKIPGARFFTHEERDDRGGHVLQDRHKINNGIPSLDELQLLDWVPNGGHIGFSPVSAPDGREAMKQFEMVRNRANEYNKDYAAQFIIGLREMHHVCLFIYDTAIPEAREEILQMTKVLVREAAEAGYGEYRTHNALMDDVMATFNWGDGALLKFHEKIKDALDPNGIIAPGKSGIWSQRFRGQNL
notes: full length, 526 residues, C-terminal His6 tag (pBAD-EUGO-His6x), E. coli NEB10beta; covalent FAD; homodimer; mutants for crystals from His-SUMO fusion, tag cleaved
Take B1: the Km in the series “purified protein [1]” is 3.3 ± 0.9 µM; in the series “purified protein [2]”, 43.0 ± 2.2 µM. Further, the kcat is 0.008 ± 0.0003 s⁻¹ in the series “purified protein [1]” and 6.8 ± 0.2 s⁻¹ in the series “purified protein [2]”.
